Here are results for four molecules from PMC10404244, “Control of motor landing and processivity by the CAP-Gly domain in the KIF13B tail” (Nature Communications, 2023).

For series [1], the target named is T1, tyrosinated microtubules polymerized from recombinant human α1A/βIII tubulin (human, UniProt Q71U36 1-451; Q13509 1-450).
T1 construct: human alpha-tubulin isotype α1A, fully tyrosinated; human beta-tubulin isotype βIII; Plasmids (pFAST-Dual) were gifts from A. Roll-Mecak; also called recombinant human tubulin (fully tyrosinated); not shown: His tag (from the HisTrap purification)
In words: TIRF microscopy microtubule-binding assay (standard deviation map); differentially labelled tyrosinated and detyrosinated taxol microtubules held by biotin-streptavidin in the same chamber, sfGFP motors in solution, 2 mM ATP, HP assay buffer pH 7.0. The note with it: both partners purified.

Series [2] deals with the molecule itself. In words: mass photometry; 5, 25 and 100 nM protein in HP buffer (90 mM HEPES, 10 mM PIPES, 50 mM K-acetate, 2 mM Mg-acetate, 1 mM EGTA, 10% glycerol, pH 7.0), room temperature; result told over the whole range; monomer to dimer.

T1 sequence (Q71U36 whole entry, chain 1 of 2): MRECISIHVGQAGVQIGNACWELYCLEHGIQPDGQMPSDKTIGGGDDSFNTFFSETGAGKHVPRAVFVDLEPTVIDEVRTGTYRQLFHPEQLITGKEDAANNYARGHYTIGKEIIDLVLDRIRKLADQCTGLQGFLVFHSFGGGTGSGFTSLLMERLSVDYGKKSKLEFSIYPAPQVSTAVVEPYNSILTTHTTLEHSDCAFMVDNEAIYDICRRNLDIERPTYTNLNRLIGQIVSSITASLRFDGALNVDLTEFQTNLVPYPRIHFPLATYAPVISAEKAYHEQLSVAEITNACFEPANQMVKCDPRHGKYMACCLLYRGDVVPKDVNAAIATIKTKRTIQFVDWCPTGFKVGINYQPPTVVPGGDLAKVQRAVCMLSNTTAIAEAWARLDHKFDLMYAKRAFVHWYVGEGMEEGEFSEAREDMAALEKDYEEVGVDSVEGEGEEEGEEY
T1 sequence (Q13509 whole entry, chain 2 of 2): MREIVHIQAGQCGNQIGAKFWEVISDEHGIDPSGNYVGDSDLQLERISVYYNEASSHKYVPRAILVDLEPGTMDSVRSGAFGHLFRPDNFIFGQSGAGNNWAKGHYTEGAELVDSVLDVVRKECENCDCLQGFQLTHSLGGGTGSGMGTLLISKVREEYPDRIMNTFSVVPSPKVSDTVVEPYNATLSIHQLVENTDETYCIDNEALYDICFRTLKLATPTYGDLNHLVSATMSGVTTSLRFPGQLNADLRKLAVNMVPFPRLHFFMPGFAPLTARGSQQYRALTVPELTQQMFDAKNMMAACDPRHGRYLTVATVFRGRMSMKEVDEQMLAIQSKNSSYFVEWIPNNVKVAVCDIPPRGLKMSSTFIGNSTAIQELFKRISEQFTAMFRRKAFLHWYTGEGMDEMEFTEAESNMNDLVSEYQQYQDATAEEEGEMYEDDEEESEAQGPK

B1: full-length human KIF13B (wild type), C-terminal sfGFP-StrepII (natural protein)
chain: MGDSKVKVAVRIRPMNRRETDLHTKCVVDVDANKVILNPVNTNLSKGDARGQPKVFAYDHCFWSMDESVKEKYAGQDIVFKCLGENILQNAFDGYNACIFAYGQTGSGKSYTMMGTADQPGLIPRLCSGLFERTQKEENEEQSFKVEVSYMEIYNEKVRDLLDPKGSRQTLKVREHSVLGPYVDGLSKLAVTSYKDIESLMSEGNKSRTVAATNMNEESSRSHAVFKITLTHTLYDVKSGTSGEKVGKLSLVDLAGSERATKTGAAGDRLKEGSNINKSLTTLGLVISALADQSAGKNKNKFVPYRDSVLTWLLKDSLGGNSKTAMVATVSPAADNYDETLSTLRYADRAKHIVNHAVVNEDPNARIIRDLREEVEKLREQLTKAEAMKSPELKDRLEESEKLIQEMTVTWEEKLRKTEEIAQERQKQLESLGISLQSSGIKVGDDKCFLVNLNADPALNELLVYYLKEHTLIGSANSQDIQLCGMGILPEHCIIDITSEGQVMLTPQKNTRTFVNGSSVSSPIQLHHGDRILWGNNHFFRLNLPKKKKKAEREDEDQDPSMKNENSSEQLDVDGDSSSEVSSEVNFNYEYAQMEVTMKALGSNDPMQSILNSLEQQHEEEKRSALERQRLMYEHELEQLRRRLSPEKQNCRSMDRFSFHSPSAQQRLRQWAEEREATLNNSLMRLREQIVKANLLVREANYIAEELDKRTEYKVTLQIPASSLDANRKRGSLLSEPAIQVRRKGKGKQIWSLEKLDNRLLDMRDLYQEWKECEEDNPVIRSYFKRADPFYDEQENHSLIGVANVFLESLFYDVKLQYAVPIINQKGEVAGRLHVEVMRLSGDVGERIAGGDEVAEVSFEKETQENKLVCMVKILQATGLPQHLSHFVFCKYSFWDQQEPVIVAPEVDTSSSSVSKEPHCMVVFDHCNEFSVNITEDFIEHLSEGALAIEVYGHKINDPRKNPALWDLGIIQAKTRSLRDRWSEVTRKLEFWVQILEQNENGEYCPVEVISAKDVPTGGIFQLRQGQSRRVQVEVKSVQESGTLPLMEECILSVGIGCVKVRPLRAPRTHETFHEEEEDMDSYQDRDLERLRRKWLNALTKRQEYLDQQLQKLVSKRDKTEDDADREAQLLEMRLTLTEERNAVMVPSAGSGIPGAPAEWTPVPGMETHIPVIFLDLNADDFSSQDNLDDPEAGGWDATLTGEEEEEFFELQIVKQHDGEVKAEASWDSAVHGCPQLSRGTPVDERLFLIVRVTVQLSHPADMQLVLRKRICVNVHGRQGFAQSLLKKMSHRSSIPGCGVTFEIVSNIPEDAQGVEEREALARMAANVENPASADSEAYIEKYLRSVLAVENLLTLDRLRQEVAVKEQLTGKGKLSRRSISSPNVNRLSGSRQDLIPSYSLGSNKGRWESQQDVSQTTVSRGIAPAPALSVSPQNNHSPDPGLSNLAASYLNPVKSFVPQMPKLLKSLFPVRDEKRGKRPSPLAHQPVPRIMVQSASPDIRVTRMEEAQPEMGPDVLVQTMGAPALKICDKPAKVPSPPPVIAVTAVTPAPEAQDGPPSPLSEASSGYFSHSVSTATLSDALGPGLDAAAPPGSMPTAPEAEPEAPISHPPPPTAVPAEEPPGPQQLVSPGRERPDLEAPAPGSPFRVRRVRASELRSFSRMLAGDPGCSPGAEGNAPAPGAGGQALASDSEEADEVPEWLREGEFVTVGAHKTGVVRYVGPADFQEGTWVGVELDLPSGKNDGSIGGKQYFRCNPGYGLLVRPSRVRRATGPVRRRSTGLRLGAPEARRSATLSGSATNLASLTAALAKADRSHKNPENRKSWAS
notes: KIF13B, human, full-length cDNA from Transomics (BC172411); Predominantly monomeric in solution, minor dimer fraction (mass photometry); also called WT KIF13B; full-length KIF13B; source: Sf9 insect cells (baculovirus), purified (Strep-Tactin XT, gel filtration); not shown: sfGFP, C-terminal, kept
As to B1, the binding result in series [1] was “binds”.

B2: full-length human KIF13B K414A, C-terminal sfGFP-StrepII (natural protein, UniProt Q9NQT8 1-1826, looked up)
chain: MGDSKVKVAVRIRPMNRRETDLHTKCVVDVDANKVILNPVNTNLSKGDARGQPKVFAYDHCFWSMDESVKEKYAGQDIVFKCLGENILQNAFDGYNACIFAYGQTGSGKSYTMMGTADQPGLIPRLCSGLFERTQKEENEEQSFKVEVSYMEIYNEKVRDLLDPKGSRQTLKVREHSVLGPYVDGLSKLAVTSYKDIESLMSEGNKSRTVAATNMNEESSRSHAVFKITLTHTLYDVKSGTSGEKVGKLSLVDLAGSERATKTGAAGDRLKEGSNINKSLTTLGLVISALADQSAGKNKNKFVPYRDSVLTWLLKDSLGGNSKTAMVATVSPAADNYDETLSTLRYADRAKHIVNHAVVNEDPNARIIRDLREEVEKLREQLTKAEAMKSPELKDRLEESEKLIQEMTVTWEEALRKTEEIAQERQKQLESLGISLQSSGIKVGDDKCFLVNLNADPALNELLVYYLKEHTLIGSANSQDIQLCGMGILPEHCIIDITSEGQVMLTPQKNTRTFVNGSSVSSPIQLHHGDRILWGNNHFFRLNLPKKKKKAEREDEDQDPSMKNENSSEQLDVDGDSSSEVSSEVNFNYEYAQMEVTMKALGSNDPMQSILNSLEQQHEEEKRSALERQRLMYEHELEQLRRRLSPEKQNCRSMDRFSFHSPSAQQRLRQWAEEREATLNNSLMRLREQIVKANLLVREANYIAEELDKRTEYKVTLQIPASSLDANRKRGSLLSEPAIQVRRKGKGKQIWSLEKLDNRLLDMRDLYQEWKECEEDNPVIRSYFKRADPFYDEQENHSLIGVANVFLESLFYDVKLQYAVPIINQKGEVAGRLHVEVMRLSGDVGERIAGGDEVAEVSFEKETQENKLVCMVKILQATGLPQHLSHFVFCKYSFWDQQEPVIVAPEVDTSSSSVSKEPHCMVVFDHCNEFSVNITEDFIEHLSEGALAIEVYGHKINDPRKNPALWDLGIIQAKTRSLRDRWSEVTRKLEFWVQILEQNENGEYCPVEVISAKDVPTGGIFQLRQGQSRRVQVEVKSVQESGTLPLMEECILSVGIGCVKVRPLRAPRTHETFHEEEEDMDSYQDRDLERLRRKWLNALTKRQEYLDQQLQKLVSKRDKTEDDADREAQLLEMRLTLTEERNAVMVPSAGSGIPGAPAEWTPVPGMETHIPVIFLDLNADDFSSQDNLDDPEAGGWDATLTGEEEEEFFELQIVKQHDGEVKAEASWDSAVHGCPQLSRGTPVDERLFLIVRVTVQLSHPADMQLVLRKRICVNVHGRQGFAQSLLKKMSHRSSIPGCGVTFEIVSNIPEDAQGVEEREALARMAANVENPASADSEAYIEKYLRSVLAVENLLTLDRLRQEVAVKEQLTGKGKLSRRSISSPNVNRLSGSRQDLIPSYSLGSNKGRWESQQDVSQTTVSRGIAPAPALSVSPQNNHSPDPGLSNLAASYLNPVKSFVPQMPKLLKSLFPVRDEKRGKRPSPLAHQPVPRIMVQSASPDIRVTRMEEAQPEMGPDVLVQTMGAPALKICDKPAKVPSPPPVIAVTAVTPAPEAQDGPPSPLSEASSGYFSHSVSTATLSDALGPGLDAAAPPGSMPTAPEAEPEAPISHPPPPTAVPAEEPPGPQQLVSPGRERPDLEAPAPGSPFRVRRVRASELRSFSRMLAGDPGCSPGAEGNAPAPGAGGQALASDSEEADEVPEWLREGEFVTVGAHKTGVVRYVGPADFQEGTWVGVELDLPSGKNDGSIGGKQYFRCNPGYGLLVRPSRVRRATGPVRRRSTGLRLGAPEARRSATLSGSATNLASLTAALAKADRSHKNPENRKSWAS
notes: also called KI13B^K414A; source: Sf9 insect cells (baculovirus), purified (Strep-Tactin XT, gel filtration); not shown: sfGFP, C-terminal, kept
Consider B2, for which the binding result in series [2] is recorded as “binds”.

B3: full-length human KIF13B V178Q, C-terminal sfGFP-StrepII (natural protein, UniProt Q9NQT8 1-1826, looked up)
chain: MGDSKVKVAVRIRPMNRRETDLHTKCVVDVDANKVILNPVNTNLSKGDARGQPKVFAYDHCFWSMDESVKEKYAGQDIVFKCLGENILQNAFDGYNACIFAYGQTGSGKSYTMMGTADQPGLIPRLCSGLFERTQKEENEEQSFKVEVSYMEIYNEKVRDLLDPKGSRQTLKVREHSQLGPYVDGLSKLAVTSYKDIESLMSEGNKSRTVAATNMNEESSRSHAVFKITLTHTLYDVKSGTSGEKVGKLSLVDLAGSERATKTGAAGDRLKEGSNINKSLTTLGLVISALADQSAGKNKNKFVPYRDSVLTWLLKDSLGGNSKTAMVATVSPAADNYDETLSTLRYADRAKHIVNHAVVNEDPNARIIRDLREEVEKLREQLTKAEAMKSPELKDRLEESEKLIQEMTVTWEEKLRKTEEIAQERQKQLESLGISLQSSGIKVGDDKCFLVNLNADPALNELLVYYLKEHTLIGSANSQDIQLCGMGILPEHCIIDITSEGQVMLTPQKNTRTFVNGSSVSSPIQLHHGDRILWGNNHFFRLNLPKKKKKAEREDEDQDPSMKNENSSEQLDVDGDSSSEVSSEVNFNYEYAQMEVTMKALGSNDPMQSILNSLEQQHEEEKRSALERQRLMYEHELEQLRRRLSPEKQNCRSMDRFSFHSPSAQQRLRQWAEEREATLNNSLMRLREQIVKANLLVREANYIAEELDKRTEYKVTLQIPASSLDANRKRGSLLSEPAIQVRRKGKGKQIWSLEKLDNRLLDMRDLYQEWKECEEDNPVIRSYFKRADPFYDEQENHSLIGVANVFLESLFYDVKLQYAVPIINQKGEVAGRLHVEVMRLSGDVGERIAGGDEVAEVSFEKETQENKLVCMVKILQATGLPQHLSHFVFCKYSFWDQQEPVIVAPEVDTSSSSVSKEPHCMVVFDHCNEFSVNITEDFIEHLSEGALAIEVYGHKINDPRKNPALWDLGIIQAKTRSLRDRWSEVTRKLEFWVQILEQNENGEYCPVEVISAKDVPTGGIFQLRQGQSRRVQVEVKSVQESGTLPLMEECILSVGIGCVKVRPLRAPRTHETFHEEEEDMDSYQDRDLERLRRKWLNALTKRQEYLDQQLQKLVSKRDKTEDDADREAQLLEMRLTLTEERNAVMVPSAGSGIPGAPAEWTPVPGMETHIPVIFLDLNADDFSSQDNLDDPEAGGWDATLTGEEEEEFFELQIVKQHDGEVKAEASWDSAVHGCPQLSRGTPVDERLFLIVRVTVQLSHPADMQLVLRKRICVNVHGRQGFAQSLLKKMSHRSSIPGCGVTFEIVSNIPEDAQGVEEREALARMAANVENPASADSEAYIEKYLRSVLAVENLLTLDRLRQEVAVKEQLTGKGKLSRRSISSPNVNRLSGSRQDLIPSYSLGSNKGRWESQQDVSQTTVSRGIAPAPALSVSPQNNHSPDPGLSNLAASYLNPVKSFVPQMPKLLKSLFPVRDEKRGKRPSPLAHQPVPRIMVQSASPDIRVTRMEEAQPEMGPDVLVQTMGAPALKICDKPAKVPSPPPVIAVTAVTPAPEAQDGPPSPLSEASSGYFSHSVSTATLSDALGPGLDAAAPPGSMPTAPEAEPEAPISHPPPPTAVPAEEPPGPQQLVSPGRERPDLEAPAPGSPFRVRRVRASELRSFSRMLAGDPGCSPGAEGNAPAPGAGGQALASDSEEADEVPEWLREGEFVTVGAHKTGVVRYVGPADFQEGTWVGVELDLPSGKNDGSIGGKQYFRCNPGYGLLVRPSRVRRATGPVRRRSTGLRLGAPEARRSATLSGSATNLASLTAALAKADRSHKNPENRKSWAS
notes: source: Sf9 insect cells (baculovirus), purified (Strep-Tactin XT, gel filtration); not shown: sfGFP, C-terminal, kept
With B3, the binding result in series [2] is listed as “binds”.

B4: human KIF13B CAP-Gly fragment (a.a. 1685–1826), N-terminal sfGFP-StrepII (domain or fragment)
chain: QALASDSEEADEVPEWLREGEFVTVGAHKTGVVRYVGPADFQEGTWVGVELDLPSGKNDGSIGGKQYFRCNPGYGLLVRPSRVRRATGPVRRRSTGLRLGAPEARRSATLSGSATNLASLTAALAKADRSHKNPENRKSWAS
notes: KIF13B, human, a.a; 1685–1826: CAP-Gly domain and an ~80 residue unstructured C-terminal region; The sfGFP-StrepII tag is joined to the N-terminus of the fragment through a 3xGGGGS linker (pET28a); the methods hold here; also called KIF13B^CG; KIF13^CG; source: E. coli BL21-CodonPlus (DE3)-RIPL, purified (Strep-Tactin XT, HiTrap Q, Superdex 200); not shown: sfGFP, N-terminal, kept
Consider B4, for which, in series [1], the binding result is “binds”.
